Results reported in IntAct's records for PubMed 31515488.

B1: E3 ubiquitin-protein ligase LNX (Homo sapiens), Q8TBB1 (parent)
chain: MNQPESANDPEPLCAVCGQAHSLEENHFYSYPEEVDDDLICHICLQALLDPLDTPCGHTYCTLCLTNFLVEKDFCPMDRKPLVLQHCKKSSILVNKLLNKLLVTCPFREHCTQVLQRCDLEHHFQTSCKGASHYGLTKDRKRRSQDGCPDGCASLTATAPSPEVSAAATISLMTDEPGLDNPAYVSSAEDGQPAISPVDSGRSNRTRARPFERSTIRSRSFKKINRALSVLRRTKSGSAVANHADQGRENSENTTAPEVFPRLYHLIPDGEITSIKINRVDPSESLSIRLVGGSETPLVHIIIQHIYRDGVIARDGRLLPGDIILKVNGMDISNVPHNYAVRLLRQPCQVLWLTVMREQKFRSRNNGQAPDAYRPRDDSFHVILNKSSPEEQLGIKLVRKVDEPGVFIFNVLDGGVAYRHGQLEENDRVLAINGHDLRYGSPESAAHLIQASERRVHLVVSRQVRQRSPDIFQEAGWNSNGSWSPGPGERSNTPKPLHPTITCHEKVVNIQKDPGESLGMTVAGGASHREWDLPIYVISVEPGGVISRDGRIKTGDILLNVDGVELTEVSRSEAVALLKRTSSSIVLKALEVKEYEPQEDCSSPAALDSNHNMAPPSDWSPSWVMWLELPRCLYNCKDIVLRRNTAGSLGFCIVGGYEEYNGNKPFFIKSIVEGTPAYNDGRIRCGDILLAVNGRSTSGMIHACLARLLKELKGRITLTIVSWPGTFL
partner: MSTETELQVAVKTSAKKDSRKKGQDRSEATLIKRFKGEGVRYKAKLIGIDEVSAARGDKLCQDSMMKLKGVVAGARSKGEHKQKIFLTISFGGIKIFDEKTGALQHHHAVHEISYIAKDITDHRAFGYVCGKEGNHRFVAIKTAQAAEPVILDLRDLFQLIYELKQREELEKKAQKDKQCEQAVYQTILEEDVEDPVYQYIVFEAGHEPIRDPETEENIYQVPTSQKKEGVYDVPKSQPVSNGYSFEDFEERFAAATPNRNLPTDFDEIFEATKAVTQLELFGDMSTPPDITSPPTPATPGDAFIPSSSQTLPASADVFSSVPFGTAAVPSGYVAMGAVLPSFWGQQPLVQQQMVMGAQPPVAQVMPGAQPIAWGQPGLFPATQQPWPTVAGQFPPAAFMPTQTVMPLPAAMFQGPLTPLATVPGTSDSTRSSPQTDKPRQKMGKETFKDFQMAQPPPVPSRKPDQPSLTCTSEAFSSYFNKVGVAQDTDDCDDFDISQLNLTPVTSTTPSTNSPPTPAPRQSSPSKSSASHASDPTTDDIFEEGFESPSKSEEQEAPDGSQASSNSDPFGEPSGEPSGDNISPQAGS
B2: Tyrosine-protein phosphatase non-receptor type 9 (Homo sapiens), P43378 (parent)
chain: MEPATAPRPDMAPELTPEEEQATKQFLEEINKWTVQYNVSPLSWNVAVKFLMARKFDVLRAIELFHSYRETRRKEGIVKLKPHEEPLRSEILSGKFTILNVRDPTGASIALFTARLHHPHKSVQHVVLQALFYLLDRAVDSFETQRNGLVFIYDMCGSNYANFELDLGKKVLNLLKGAFPARLKKVLIVGAPIWFRVPYSIISLLLKDKVRERIQILKTSEVTQHLPRECLPENLGGYVKIDLATWNFQFLPQVNGHPDPFDEIILFSLPPALDWDSVHVPGPHAMTIQELVDYVNARQKQGIYEEYEDIRRENPVGTFHCSMSPGNLEKNRYGDVPCLDQTRVKLTKRSGHTQTDYINASFMDGYKQKNAYIGTQGPLENTYRDFWLMVWEQKVLVIVMTTRFEEGGRRKCGQYWPLEKDSRIRFGFLTVTNLGVENMNHYKKTTLEIHNTEERQKRQVTHFQFLSWPDYGVPSSAASLIDFLRVVRNQQSLAVSNMGARSKGQCPEPPIVVHCSAGIGRTGTFCSLDICLAQLEELGTLNVFQTVSRMRTQRAFSIQTPEQYYFCYKAILEFAEKEGMVSSGQNLLAVESQ
partner: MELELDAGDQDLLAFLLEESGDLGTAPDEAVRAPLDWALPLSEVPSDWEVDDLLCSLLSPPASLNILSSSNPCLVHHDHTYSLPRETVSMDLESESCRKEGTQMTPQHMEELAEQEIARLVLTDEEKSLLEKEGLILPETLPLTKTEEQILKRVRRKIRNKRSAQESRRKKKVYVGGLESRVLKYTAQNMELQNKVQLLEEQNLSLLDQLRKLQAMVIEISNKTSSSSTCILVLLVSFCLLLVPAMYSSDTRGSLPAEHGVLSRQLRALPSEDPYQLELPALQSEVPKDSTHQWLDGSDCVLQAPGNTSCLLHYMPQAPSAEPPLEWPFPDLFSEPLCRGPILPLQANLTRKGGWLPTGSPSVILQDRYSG
B3: 5-phosphohydroxy-L-lysine phospho-lyase (Homo sapiens), Q8IUZ5 (parent)
chain: MAADQRPKADTLALRQRLISSSCRLFFPEDPVKIVRAQGQYMYDEQGAEYIDCISNVAHVGHCHPLVVQAAHEQNQVLNTNSRYLHDNIVDYAQRLSETLPEQLCVFYFLNSGSEANDLALRLARHYTGHQDVVVLDHAYHGHLSSLIDISPYKFRNLDGQKEWVHVAPLPDTYRGPYREDHPNPAMAYANEVKRVVSSAQEKGRKIAAFFAESLPSVGGQIIPPAGYFSQVAEHIRKAGGVFVADEIQVGFGRVGKHFWAFQLQGKDFVPDIVTMGKSIGNGHPVACVAATQPVARAFEATGVEYFNTFGGSPVSCAVGLAVLNVLEKEQLQDHATSVGSFLMQLLGQQKIKHPIVGDVRGVGLFIGVDLIKDEATRTPATEEAAYLVSRLKENYVLLSTDGPGRNILKFKPPMCFSLDNARQVVAKLDAILTDMEEKVRSCETLRLQP
partner: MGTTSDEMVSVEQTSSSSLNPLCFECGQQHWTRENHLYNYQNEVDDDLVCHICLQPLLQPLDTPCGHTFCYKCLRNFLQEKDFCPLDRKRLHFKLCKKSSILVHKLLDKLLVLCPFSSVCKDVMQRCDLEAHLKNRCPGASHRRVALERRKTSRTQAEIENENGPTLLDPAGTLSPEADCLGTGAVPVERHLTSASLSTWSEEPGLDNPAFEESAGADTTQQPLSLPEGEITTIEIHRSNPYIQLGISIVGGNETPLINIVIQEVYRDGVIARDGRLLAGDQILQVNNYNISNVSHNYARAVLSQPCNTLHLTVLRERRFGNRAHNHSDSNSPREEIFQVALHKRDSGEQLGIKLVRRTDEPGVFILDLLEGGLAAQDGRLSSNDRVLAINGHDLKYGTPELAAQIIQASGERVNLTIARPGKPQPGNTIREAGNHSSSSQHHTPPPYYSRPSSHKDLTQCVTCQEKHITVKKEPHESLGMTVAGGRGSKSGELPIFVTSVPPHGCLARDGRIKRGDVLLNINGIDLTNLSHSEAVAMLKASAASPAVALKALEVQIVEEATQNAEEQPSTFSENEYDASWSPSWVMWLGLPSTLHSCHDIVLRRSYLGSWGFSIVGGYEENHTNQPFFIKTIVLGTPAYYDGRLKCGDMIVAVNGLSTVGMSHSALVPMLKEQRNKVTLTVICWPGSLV
B4: Notch homolog 2 N-terminal-like protein A (Homo sapiens), Q7Z3S9 (parent)
chain: MCVTYHNGTGYCKCPEGFLGEYCQHRDPCEKNRCQNGGTCVAQAMLGKATCRCASGFTGEDCQYSTSHPCFVSRPCLNGGTCHMLSRDTYECTCQVGFTGKECQWTDACLSHPCANGSTCTTVANQFSCKCLTGFTGQKCETDVNECDIPGHCQHGGTCLNLPGSYQCQCLQGFTGQYCDSLYVPCAPSPCVNGGTCRQTGDFTFECNCLPETVRRGTELWERDREVWNGKEHDEN
partner: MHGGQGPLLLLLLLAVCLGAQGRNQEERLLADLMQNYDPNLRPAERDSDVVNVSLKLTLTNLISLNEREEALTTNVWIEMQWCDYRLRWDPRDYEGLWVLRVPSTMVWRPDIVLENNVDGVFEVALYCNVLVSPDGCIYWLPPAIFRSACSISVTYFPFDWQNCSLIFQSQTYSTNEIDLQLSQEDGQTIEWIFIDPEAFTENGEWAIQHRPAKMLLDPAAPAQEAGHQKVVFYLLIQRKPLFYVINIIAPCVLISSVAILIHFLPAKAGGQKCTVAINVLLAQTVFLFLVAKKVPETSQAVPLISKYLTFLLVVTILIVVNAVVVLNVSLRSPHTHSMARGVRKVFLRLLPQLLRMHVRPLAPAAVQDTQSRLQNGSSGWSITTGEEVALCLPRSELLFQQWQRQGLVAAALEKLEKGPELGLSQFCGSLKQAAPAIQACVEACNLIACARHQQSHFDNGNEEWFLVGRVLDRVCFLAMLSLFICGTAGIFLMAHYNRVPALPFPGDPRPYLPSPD
B5: DNA topoisomerase 3-beta-1 (Homo sapiens), O95985 (parent)
chain: MKTVLMVAEKPSLAQSIAKILSRGSLSSHKGLNGACSVHEYTGTFAGQPVRFKMTSVCGHVMTLDFLGKYNKWDKVDPAELFSQAPTEKKEANPKLNMVKFLQVEGRGCDYIVLWLDCDKEGENICFEVLDAVLPVMNKAHGGEKTVFRARFSSITDTDICNAMACLGEPDHNEALSVDARQELDLRIGCAFTRFQTKYFQGKYGDLDSSLISFGPCQTPTLGFCVERHDKIQSFKPETYWVLQAKVNTDKDRSLLLDWDRVRVFDREIAQMFLNMTKLEKEAQVEATSRKEKAKQRPLALNTVEMLRVASSSLGMGPQHAMQTAERLYTQGYISYPRTETTHYPENFDLKGSLRQQANHPYWADTVKRLLAEGINRPRKGHDAGDHPPITPMKSATEAELGGDAWRLYEYITRHFIATVSHDCKYLQSTISFRIGPELFTCSGKTVLSPGFTEVMPWQSVPLEESLPTCQRGDAFPVGEVKMLEKQTNPPDYLTEAELITLMEKHGIGTDASIPVHINNICQRNYVTVESGRRLKPTNLGIVLVHGYYKIDAELVLPTIRSAVEKQLNLIAQGKADYRQVLGHTLDVFKRKFHYFVDSIAGMDELMEVSFSPLAATGKPLSRCGKCHRFMKYIQAKPSRLHCSHCDETYTLPQNGTIKLYKELRCPLDDFELVLWSSGSRGKSYPLCPYCYNHPPFRDMKKGMGCNECTHPSCQHSLSMLGIGQCVECESGVLVLDPTSGPKWKVACNKCNVVAHCFENAHRVRVSADTCSVCEAALLDVDFNKAKSPLPGDETQHMGCVFCDPVFQELVELKHAASCHPMHRGGPGRRQGRGRGRARRPPGKPNPRRPKDKMSALAAYFV
partner: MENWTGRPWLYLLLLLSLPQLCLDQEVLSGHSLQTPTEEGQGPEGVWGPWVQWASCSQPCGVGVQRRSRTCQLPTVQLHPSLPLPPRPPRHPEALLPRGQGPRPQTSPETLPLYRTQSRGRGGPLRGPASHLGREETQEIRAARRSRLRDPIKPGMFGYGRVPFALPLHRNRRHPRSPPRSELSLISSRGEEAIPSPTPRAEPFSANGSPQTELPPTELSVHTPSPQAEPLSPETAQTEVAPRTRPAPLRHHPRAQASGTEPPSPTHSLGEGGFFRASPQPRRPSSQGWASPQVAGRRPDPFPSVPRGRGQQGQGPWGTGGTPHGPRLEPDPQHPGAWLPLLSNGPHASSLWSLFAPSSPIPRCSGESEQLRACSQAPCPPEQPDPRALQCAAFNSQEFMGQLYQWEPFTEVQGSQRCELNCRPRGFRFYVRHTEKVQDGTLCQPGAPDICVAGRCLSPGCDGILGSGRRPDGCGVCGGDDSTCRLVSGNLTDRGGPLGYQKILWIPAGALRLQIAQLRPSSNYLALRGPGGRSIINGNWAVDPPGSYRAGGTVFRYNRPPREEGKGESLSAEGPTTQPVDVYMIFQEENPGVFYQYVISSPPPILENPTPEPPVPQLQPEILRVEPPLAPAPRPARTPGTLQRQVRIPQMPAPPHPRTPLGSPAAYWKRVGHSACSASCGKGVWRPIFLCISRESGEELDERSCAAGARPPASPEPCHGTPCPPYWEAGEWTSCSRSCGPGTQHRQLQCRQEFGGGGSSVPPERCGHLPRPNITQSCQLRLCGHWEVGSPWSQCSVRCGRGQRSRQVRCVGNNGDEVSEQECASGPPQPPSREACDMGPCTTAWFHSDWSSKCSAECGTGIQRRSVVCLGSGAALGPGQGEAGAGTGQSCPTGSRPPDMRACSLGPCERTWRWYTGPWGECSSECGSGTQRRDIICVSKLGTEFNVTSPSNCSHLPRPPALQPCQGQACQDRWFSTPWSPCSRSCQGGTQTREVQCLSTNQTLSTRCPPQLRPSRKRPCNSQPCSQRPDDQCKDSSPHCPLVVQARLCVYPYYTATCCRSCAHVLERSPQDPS

Variants of: B1
Details: with dab1_human DAB1, O75553

Variant	effect of a mutation on the interaction
R342H	with no effect

Variants of: B2
Details: with creb3_human CREB3, O43889

Variant	effect of a mutation on the interaction
R72Q	with no effect

Variants of: B3
Details: with lnx2_human LNX2, Q8N448

Variant	effect of a mutation on the interaction
H126R	with no effect

Variants of: B4
Details: with achg_human CHRNG

Variant	effect of a mutation on the interaction
R74Q	with no effect
A115T	with no effect

Variants of: B5
Details: with atl4_human ADAMTSL4, Q6UY14

Variant	effect of a mutation on the interaction
R267W	disrupting interaction strength
